# Like-named read-outs stand apart in the source and are kept apart here. Where no end group is shown, it is not given here. [ ]: non-standard residue; d: D form. The star is where a group is joined. Octanoyl = CCCCCCCC(=O)*; Dap = NC[C@H](N)C(=O)O
# Assays:
# [1] = biological target: T1, human GHS receptor 1a (human, UniProt Q92847 1-366); assay: competitive filter binding vs [35S]-MK-677, membranes of HEK 293-AEQ17 cells transfected with human GHS receptor
# T1 construct: whole, on cells; functional assay used whole 293AEQ17/GHSR1a cells; also called hGHSR1a; human GHSR1a
# T1 sequence (Q92847 whole entry): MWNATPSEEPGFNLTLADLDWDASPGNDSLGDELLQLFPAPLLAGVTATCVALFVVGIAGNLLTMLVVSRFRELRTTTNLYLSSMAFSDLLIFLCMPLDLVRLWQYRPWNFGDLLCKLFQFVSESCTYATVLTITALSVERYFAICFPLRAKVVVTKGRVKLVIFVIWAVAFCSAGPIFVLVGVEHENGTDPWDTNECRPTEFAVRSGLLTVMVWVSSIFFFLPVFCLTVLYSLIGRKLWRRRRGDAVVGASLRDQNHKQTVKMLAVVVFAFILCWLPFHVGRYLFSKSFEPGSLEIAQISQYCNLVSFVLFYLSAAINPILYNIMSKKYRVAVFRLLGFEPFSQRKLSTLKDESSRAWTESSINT
# Description: (§1) Binding of [³⁵S]-MK-677 to crude membranes prepared from HEK 293-aequorin stable cell lines was performed as described in Chen et al., Bioorg. Med. Chem. Lett. 1996, 6, 2163-2169, and Howard et al., Science 1996, 273, 974-977. Prior to the binding assay, the HEK 293-AEQ17 cells (8×10⁵ cells plated 18 hours before transfection in a T75 flask) were transfected with 22 μg of human GHS receptor plasmid using 264 μg lipofectamine.
# [2] = biological target: T1, human GHS receptor 1a; assay: cell-based or functional assay
# [3] = biological target: T1, human GHS receptor 1a; assay: cell-based or functional assay; remark: listed apart in the source
# [4] = biological target: T1, human GHS receptor 1a; assay: competitive filter binding vs [35S]-MK-677, membranes of HEK 293-AEQ17 cells transfected with human GHS receptor; remark: listed apart in the source
# Description: as §1
Binder,IC50 [1] [µM],% activation at 10 µM relative to ghrelin [2] [%],Functional Assay EC50 (aequorin bioluminescence) [2] [µM],% activation at 10 µM relative to ghrelin [3] [%],Functional Assay EC50 (aequorin bioluminescence) [3] [µM],IC50 [4] [µM]
GS[Dap](Octanoyl)FLSPEHQRVQQ [compound 14],0.008,102,0.038,,,
GSS(Octanoyl)FLSPEHQRVQQRKESKKPPA-NH2 (N-terminus assumed; SMILES CCCCCCCC(=O)OC[C@H](NC(=O)[C@H](CO)NC(=O)CN)C(=O)N[C@@H](Cc1ccccc1)C(=O)N[C@@H](CC(C)C)C(=O)N[C@@H](CO)C(=O)N1CCC[C@H]1C(=O)N[C@@H](CCC(=O)O)C(=O)N[C@@H](Cc1c[nH]cn1)C(=O)N[C@@H](CCC(N)=O)C(=O)N[C@@H](CCCNC(=N)N)C(=O)N[C@H](C(=O)N[C@@H](CCC(N)=O)C(=O)N[C@@H](CCC(N)=O)C(=O)N[C@@H](CCCNC(=N)N)C(=O)N[C@@H](CCCCN)C(=O)N[C@@H](CCC(=O)O)C(=O)N[C@@H](CO)C(=O)N[C@@H](CCCCN)C(=O)N[C@@H](CCCCN)C(=O)N1CCC[C@H]1C(=O)N1CCC[C@H]1C(=O)N[C@@H](C)C(N)=O)C(C)C) [compound 18],,,,100,0.015,0.00016
"GSXFLSPEHQRVQQRKESKKPPAKLQPR (X^b at position 3: 2,3-di-amino-propionic acid in place of Ser3, its beta-amino group acylated with n-octanoic acid) [compound 12]",0.00042,,0.031,,,
GSS(Octanoyl)FLSPEHQRVQQRKES-NH2 (N-terminus assumed; SMILES CCCCCCCC(=O)OC[C@H](NC(=O)[C@H](CO)NC(=O)CN)C(=O)N[C@@H](Cc1ccccc1)C(=O)N[C@@H](CC(C)C)C(=O)N[C@@H](CO)C(=O)N1CCC[C@H]1C(=O)N[C@@H](CCC(=O)O)C(=O)N[C@@H](Cc1c[nH]cn1)C(=O)N[C@@H](CCC(N)=O)C(=O)N[C@@H](CCCNC(=N)N)C(=O)N[C@H](C(=O)N[C@@H](CCC(N)=O)C(=O)N[C@@H](CCC(N)=O)C(=O)N[C@@H](CCCNC(=N)N)C(=O)N[C@@H](CCCCN)C(=O)N[C@@H](CCC(=O)O)C(=O)N[C@@H](CO)C(N)=O)C(C)C) [compound 19],,,,92,0.022,0.00077
GSS(Octanoyl)FLSPEHQRVQQ [compound 13],0.0096,97,0.017,97,0.017,0.0096
GSS(Octanoyl)FL-NH2 (N-terminus assumed; SMILES CCCCCCCC(=O)OC[C@H](NC(=O)[C@H](CO)NC(=O)CN)C(=O)N[C@@H](Cc1ccccc1)C(=O)N[C@@H](CC(C)C)C(N)=O) [compound 21],,,,96,0.0115,0.055

# From patent publication US20030186844A1 (MERCK, published 2003)
